Test results reported in PMC2734569, “Functional mapping of the fission yeast DNA polymerase δ B-subunit Cdc1 by site-directed and random pentapeptide insertion mutagenesis” (BMC Molecular Biology, 2009).

Legend:
Conditions in all cases: partners not purified
Cdc1-J7 = molecular target: T1, Cdc1-J7 (Schizosaccharomyces pombe, UniProt P87324 1-462, Met-GlyValProLeuMet-Glu); assay: two-hybrid; LexA-Cdc1 bait (pBTM116 or pBTM116BN) with Gal4 activation domain-Cdc27 prey (pGAD2F-Cdc27) in S. cerevisiae CTY10-5d; ONPG liquid culture beta-galactosidase assay, mean of triplicates, as percent of wild-type Cdc1
T1 construct: Cdc1, S. pombe, with a pentapeptide inserted after residue 393; source: yeast two-hybrid fusion, in S. cerevisiae CTY10-5d
T1 sequence (looked up): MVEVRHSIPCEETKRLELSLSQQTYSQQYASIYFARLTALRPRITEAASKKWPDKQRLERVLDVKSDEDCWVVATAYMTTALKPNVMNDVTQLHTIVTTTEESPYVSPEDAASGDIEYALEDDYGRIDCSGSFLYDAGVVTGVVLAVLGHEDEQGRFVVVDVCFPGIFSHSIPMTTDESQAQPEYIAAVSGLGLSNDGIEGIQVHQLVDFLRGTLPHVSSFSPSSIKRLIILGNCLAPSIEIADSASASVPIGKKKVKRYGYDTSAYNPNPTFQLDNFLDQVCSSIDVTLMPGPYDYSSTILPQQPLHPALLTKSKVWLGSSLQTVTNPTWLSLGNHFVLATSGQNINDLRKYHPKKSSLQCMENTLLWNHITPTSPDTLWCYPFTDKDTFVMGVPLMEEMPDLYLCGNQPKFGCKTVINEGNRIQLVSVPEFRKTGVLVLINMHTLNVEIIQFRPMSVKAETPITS

Cdc1-J8 = molecular target: T2, Cdc1-J8 (Schizosaccharomyces pombe, UniProt P87324 1-462, Lys-GlyValProLeuLys-Pro); assay: two-hybrid; LexA-Cdc1 bait (pBTM116 or pBTM116BN) with Gal4-Pol3 prey and co-expressed c-myc-tagged Cdc27 (pAA-Cdc27) in S. cerevisiae CTY10-5d; ONPG liquid culture beta-galactosidase assay, mean of triplicates, as percent of wild-type Cdc1
T2 construct: Cdc1, S. pombe, with a pentapeptide inserted after residue 83; also called J19; source: yeast two-hybrid fusion, in S. cerevisiae CTY10-5d
T2 sequence (looked up): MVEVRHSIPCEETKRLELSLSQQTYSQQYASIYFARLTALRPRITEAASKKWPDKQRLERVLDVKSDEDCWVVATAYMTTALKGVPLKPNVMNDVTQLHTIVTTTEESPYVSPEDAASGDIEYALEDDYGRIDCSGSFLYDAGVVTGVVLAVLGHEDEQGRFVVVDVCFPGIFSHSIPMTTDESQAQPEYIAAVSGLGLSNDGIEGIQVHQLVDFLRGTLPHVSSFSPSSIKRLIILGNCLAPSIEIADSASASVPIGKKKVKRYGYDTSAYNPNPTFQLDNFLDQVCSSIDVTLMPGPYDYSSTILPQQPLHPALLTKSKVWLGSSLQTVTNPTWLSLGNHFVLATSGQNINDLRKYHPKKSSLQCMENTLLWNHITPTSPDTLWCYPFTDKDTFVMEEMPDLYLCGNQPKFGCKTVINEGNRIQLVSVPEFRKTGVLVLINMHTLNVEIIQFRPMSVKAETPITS

Cdc1-J21 = molecular target: T3, Cdc1-J21 (Schizosaccharomyces pombe, UniProt P87324 1-462, Leu-GlyValProGlnLeu-Asp); assay: as above
T3 construct: Cdc1, S. pombe, with a pentapeptide inserted after residue 275; source: yeast two-hybrid fusion, in S. cerevisiae CTY10-5d
T3 sequence (looked up): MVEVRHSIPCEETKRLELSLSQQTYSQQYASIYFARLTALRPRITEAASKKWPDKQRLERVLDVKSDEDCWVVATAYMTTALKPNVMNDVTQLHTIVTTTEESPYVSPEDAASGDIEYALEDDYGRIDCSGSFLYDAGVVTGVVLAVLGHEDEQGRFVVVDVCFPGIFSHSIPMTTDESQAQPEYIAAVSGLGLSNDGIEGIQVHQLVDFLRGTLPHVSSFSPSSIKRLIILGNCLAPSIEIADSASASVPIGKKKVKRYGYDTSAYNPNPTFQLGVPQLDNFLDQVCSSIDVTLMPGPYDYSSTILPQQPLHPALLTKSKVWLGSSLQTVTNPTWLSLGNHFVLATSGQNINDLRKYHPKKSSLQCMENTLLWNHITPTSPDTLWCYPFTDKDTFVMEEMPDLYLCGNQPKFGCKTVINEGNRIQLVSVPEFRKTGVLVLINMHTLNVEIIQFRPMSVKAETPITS

Cdc1-J22 = molecular target: T4, Cdc1-J22 (Schizosaccharomyces pombe, UniProt P87324 1-462, Arg-GlyValProLeuArg-Gly); assay: as above
T4 construct: Cdc1, S. pombe, with a pentapeptide inserted after residue 212; source: yeast two-hybrid fusion, in S. cerevisiae CTY10-5d
T4 sequence (looked up): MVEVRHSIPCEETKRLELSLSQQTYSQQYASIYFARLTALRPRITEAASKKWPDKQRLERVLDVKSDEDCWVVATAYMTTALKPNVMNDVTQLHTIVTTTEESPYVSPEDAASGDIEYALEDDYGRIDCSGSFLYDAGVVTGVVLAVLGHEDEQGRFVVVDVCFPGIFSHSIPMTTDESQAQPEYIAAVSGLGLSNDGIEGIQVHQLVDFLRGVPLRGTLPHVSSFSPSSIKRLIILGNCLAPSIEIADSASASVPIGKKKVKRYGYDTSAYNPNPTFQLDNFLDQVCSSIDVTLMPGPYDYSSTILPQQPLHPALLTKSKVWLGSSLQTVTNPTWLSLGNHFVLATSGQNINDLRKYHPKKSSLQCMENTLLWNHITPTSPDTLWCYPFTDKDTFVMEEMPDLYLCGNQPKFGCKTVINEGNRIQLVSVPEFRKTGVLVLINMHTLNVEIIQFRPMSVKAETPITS

Binder | two-hybrid beta-galactosidase activity, % of wild-type Cdc1 (Cdc1-J7) | two-hybrid beta-galactosidase activity, % of wild-type Cdc1 (Cdc1-J8) | two-hybrid beta-galactosidase activity, % of wild-type Cdc1 (Cdc1-J21) | two-hybrid beta-galactosidase activity, % of wild-type Cdc1 (Cdc1-J22)
Cdc27 (fission yeast DNA polymerase delta C-subunit) (natural protein, Schizosaccharomyces pombe, UniProt P30261 1-372, looked up, DNA polymerase delta C-subunit Cdc27, S. pombe; prey plasmid pGAD2F-Cdc27; also called pGAD2F-Cdc27; source: yeast two-hybrid fusion, in S. cerevisiae CTY10-5d) MEEWRNFLDIKVINESSLVTVDNLSLQLDISSEKAQEYLNMFYQGNDFLYPIYLIHGQPIDDEINLEIDEESQPISNFPVLQYILCDKSSLQEKQSRLKSGYKTVIFALSSAPLSDFDELLPAVYEIREKDVLYKKEDADKYGFIFNENSVPRVLKKAPSTHSPQLSVPSKTSTIDKTDTRSTEKTKGKDIFSNARNQKGNSSRKNKKAPLENHKEKEPLLPKEEKLSEQAKRERDDLKNIMQLEDESVSTTSVHDSEDDNLDSNNFQLEIGTEAKSAAPDEPQEIIKSVSGGKRRGKRKVKKYATTKDEEGFLVTKEEEVWESFSEDENISTGTSNVVRNKPTTVNIATKKKNTAQSKPQQKSIMSFFGKK | 19% |  |  | 
Pol3 (fission yeast DNA polymerase delta catalytic subunit) (natural protein, Schizosaccharomyces pombe, UniProt P30316 1-1086, looked up, DNA polymerase delta catalytic subunit Pol3, S. pombe; prey plasmid named pACT-Pol3 in the results and pGAD2F-Pol3 in the methods; also called Gal4-Pol3; pACT-Pol3; source: yeast two-hybrid fusion, in S. cerevisiae CTY10-5d) MTDRSSNEGVVLNKENYPFPRRNGSIHGEITDVKRRRLSERNGYGDKKGSSSKEKTSSFEDELAEYASQLDQDEIKSSKDQQWQRPALPAINPEKDDIYFQQIDSEEFTEGSVPSIRLFGVTDNGNSILVHVVGFLPYFYVKAPVGFRPEMLERFTQDLDATCNGGVIDHCIIEMKENLYGFQGNEKSPFIKIFTTNPRILSRARNVFERGEFNFEELFPVGVGVTTFESNTQYLLRFMIDCDVVGMNWIHLPASKYQFRYQNRVSNCQIEAWINYKDLISLPAEGQWSKMAPLRIMSFDIECAGRKGVFPDPSIDPVIQIASIVTQYGDSTPFVRNVFCVDTCSQIVGTQVYEFQNQAEMLSSWSKFVRDVDPDVLIGYNICNFDIPYLLDRAKSLRIHNFPLLGRIHNFFSVAKETTFSSKAYGTRESKTTSIPGRLQLDMLQVMQRDFKLRSYSLNAVCSQFLGEQKEDVHYSIITDLQNGTADSRRRLAIYCLKDAYLPQRLMDKLMCFVNYTEMARVTGVPFNFLLARGQQIKVISQLFRKALQHDLVVPNIRVNGTDEQYEGATVIEPIKGYYDTPIATLDFSSLYPSIMQAHNLCYTTLLDSNTAELLKLKQDVDYSVTPNGDYFVKPHVRKGLLPIILADLLNARKKAKADLKKETDPFKKAVLDGRQLALKVSANSVYGFTGATNGRLPCLAISSSVTSYGRQMIEKTKDVVEKRYRIENGYSHDAVVIYGDTDSVMVKFGVKTLPEAMKLGEEAANYVSDQFPNPIKLEFEKVYFPYLLISKKRYAGLFWTRTDTYDKMDSKGIETVRRDNCPLVSYVIDTALRKMLIDQDVEGAQLFTKKVISDLLQNKIDMSQLVITKALSKTDYAAKMAHVELAERMRKRDAGSAPAIGDRVAYVIIKGAQGDQFYMRSEDPIYVLENNIPIDAKYYLENQLSKPLLRIFEPILGEKASSLLHGDHTRTISMAAPSVGGIMKFAVKVETCLGCKAPIKKGKTALCENCLNRSAELYQRQVAQVNDLEVRFARLWTQCQRCQGSMHQDVICTSRDCPIFYMRIAEHKKLQQSVDLLKRFDEMSW |  | < 1% | < 1% | 25%
